Reference: US20240369568A1 (GlaxoSmithKline, published 2024)

T1: BCMA (the 'Antigen' of the SPR antigen binding assay) (human, UniProt Q02223 1-54, limits assumed)
T1 construct: also called human BCMA
T1 sequence (looked up): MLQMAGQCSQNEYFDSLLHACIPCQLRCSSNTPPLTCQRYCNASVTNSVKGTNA


Key:
Test in all cases: SPR, release and stability method, specific binding activity
FcγRIIIa = target: T2, FcγRIIIa (UniProt P08637 17-208, limits assumed)
T2 construct: also called FcyRIIIa
Protocol: (§1) Antigen, FcγRIIIa, and FcRn specific binding activity of the purified DL variants was measured using SPR. Antigen, FcγRIIIa and FcRN analyses were performed using a release and stability surface plasmon resonance (SPR) method. The specific binding activities measured were between 80-110% for the purified DL variants. […] Despite the trend observed, the decrease in binding activity as a function of drug load is minimal and remains within specification acceptance criteria. It has been observed that as the DAR increases, there is no significant change in antigen FcγRIIIa binding by SPR and antibody-dependent cell-mediated cytotoxicity (ADCC) activity.

[1] = target: T1, BCMA (the 'Antigen' of the SPR antigen …)
Protocol: as §1

FcRn = target: T3, FcRn (UniProt P55899 24-297; P61769 21-119, limits assumed)
T3 construct: also called FcRNn
T3 sequence (P55899 24-297 limits assumed, chain 1 of 2): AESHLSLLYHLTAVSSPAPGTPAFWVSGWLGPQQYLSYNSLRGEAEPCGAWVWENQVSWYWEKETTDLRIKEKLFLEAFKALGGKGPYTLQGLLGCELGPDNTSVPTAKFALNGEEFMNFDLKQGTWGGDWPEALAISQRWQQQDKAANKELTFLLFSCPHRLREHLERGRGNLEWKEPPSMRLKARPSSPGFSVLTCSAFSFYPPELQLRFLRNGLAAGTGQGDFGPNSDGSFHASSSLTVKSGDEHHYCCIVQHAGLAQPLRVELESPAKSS
T3 sequence (P61769 21-119 limits assumed, chain 2 of 2): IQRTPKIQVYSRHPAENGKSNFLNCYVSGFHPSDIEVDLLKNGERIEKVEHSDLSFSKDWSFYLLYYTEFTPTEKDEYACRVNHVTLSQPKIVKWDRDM
Protocol: as §1

T2 sequence (P08637 17-208 limits assumed): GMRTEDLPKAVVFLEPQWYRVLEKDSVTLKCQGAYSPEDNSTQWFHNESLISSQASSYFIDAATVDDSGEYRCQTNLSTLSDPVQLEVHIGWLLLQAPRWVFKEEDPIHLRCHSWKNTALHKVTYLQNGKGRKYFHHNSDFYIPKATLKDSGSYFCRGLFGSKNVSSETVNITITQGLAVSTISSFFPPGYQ

Binder	FcyRIIIa Binding (%) (specific binding activity) (FcγRIIIa)	Antigen Binding (%) (specific binding activity) [1]	FcRNn Binding (%) (specific binding activity) (FcRn)
purified DL4a drug-load variant of belantamab mafodotin (antibody, human IgG1, kappa, mcMMAF on each LC C214 (sequential numbering); mcMMAF on each HC C224 (sequential numbering), Antibody drug conjugate, drug load of four) heavy: not shown light: not shown	103%	95%	102%
purified DL2 drug-load variant of belantamab mafodotin (antibody, human IgG1, kappa, mcMMAF on LC C214 of one of the two light chains (sequential numbering); mcMMAF on HC C224 of one of the two heavy chains (sequential numbering), Antibody drug conjugate, drug load of two; also called DL2a) heavy: not shown light: not shown	104%	99%	109%
purified DL4b drug-load variant of belantamab mafodotin (antibody, human IgG1, kappa, mcMMAF on HC C230 and HC C233 of both heavy chains (sequential numbering), Antibody drug conjugate, drug load of four at the hinge) heavy: not shown light: not shown	91%	90%	99%
purified DL0 drug-load variant of belantamab mafodotin (unconjugated belantamab) (antibody, human IgG1, kappa, HIC-purified fraction of belantamab mafodotin) heavy: not shown light: not shown	110%	103%	108%
purified DL8 drug-load variant of belantamab mafodotin (antibody, human IgG1, kappa, mcMMAF on each LC C214 (sequential numbering); mcMMAF on HC C224, HC C230 and HC C233 of both heavy chains (sequential numbering), Antibody drug conjugate, drug load of eight) heavy: not shown light: not shown	82%	86%	93%
